Experimental findings from the supplement of paper PMC7125110 are described below.

B1: glmS ribozyme (parent)
chain: AUAAAAGCGCCAGAACUACAGAAAUGUAGUUGACGAGGAGGAGGUUUAUCGAAUUUUCGGCGGAUGCCUCCAAA

What all share (details): with glucosamine-6-phosphate
The variants in series [1] derive from B1. Nature of the series: kcat; higher = faster cleavage; RNA array. The procedure, abridged: (§1)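 Over ~14 h at 37 °C, tiles were imaged as glucosamine-6-phosphate (40 μM to 10 mM) in HEPES/KCl/Mg(OAc)2 buffer flowed across sequenced MiSeq chips. The chips carried barcoded ribozyme variants transcribed in situ by E. coli RNA polymerase and tracked with a hybridised Cy3 probe. After normalisation to baseline and to non-cleaving reference variants, one- or two-exponential decay fits of per-tile medians gave kobs. kcat and KM followed from weighted Michaelis–Menten fits across concentrations.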

Series [2] covers variants of B1. Nature of the series: KM; higher = weaker cofactor use; RNA array. The procedure, abridged: as §1
Variants of B1 are the subject of series [3]. Nature of the series: self-cleavage kobs at 40 uM GlcN6P; higher = faster cleavage; RNA array. A digest of the protocol:
as §1

In series [4] the parent is B1. Nature of the series: self-cleavage kobs at 2500 uM GlcN6P; higher = faster cleavage; RNA array. The procedure, abridged: as §1
In series [5] the parent is B1. As to the kind of experiment: self-cleavage kobs at 10000 uM GlcN6P; higher = faster cleavage; RNA array. The procedure, abridged: as §1
Series [6] covers variants of B1. Nature of the series: self-cleavage kobs at 160 uM GlcN6P; higher = faster cleavage; RNA array. The procedure, abridged:
as §1

The variants in series [7] derive from B1. Nature of the series: self-cleavage kobs at 640 uM GlcN6P; higher = faster cleavage; RNA array. A digest of the protocol:
as §1

± gives the standard error. For some assays here: Variants at the floor of the assay were thinned out.

Take AUAAAAGCGCCAGAACUACAGAAAUGUAGAUGACGAGGAGGAGGUUUAUCGUAUUUUCGGCGGAUGCCUCCAAA: the catalytic constant (kcat) (commonly the maximal rate divided by the concentration of active sites) with glucosamine-6-phosphate [1] was found to be 0.000132 ± 2.2e-05 s⁻¹. The KM – broadly, the substrate concentration at which the rate is half of its maximum – in the series with glucosamine-6-phosphate [2] is 4.38 ± 1.9 mM. In addition, the “self-cleavage kobs at 40 uM GlcN6P” value with glucosamine-6-phosphate [3] was under 1e-05 s⁻¹. In addition, the “self-cleavage kobs at 2500 uM GlcN6P” value with glucosamine-6-phosphate [4] worked out at 4.37e-05 ± 1.6e-05 s⁻¹. Further, the “self-cleavage kobs at 10000 uM GlcN6P” value with glucosamine-6-phosphate [5] is 9.26e-05 ± 1.4e-05 s⁻¹.
Take AUAAAAGCGCCAGAACUACAGAAAUGUAGGUGACGAGGAGGAGGUGUAUCGAAUUUUCGGCGGAUGCCUCCAAA: the kcat with glucosamine-6-phosphate [1] was determined as 0.00267 ± 0.0006 s⁻¹. The Michaelis-Menten constant (KM) in the series with glucosamine-6-phosphate [2] came to 3.99 ± 1.2 mM. In the series with glucosamine-6-phosphate [3], the “self-cleavage kobs at 40 uM GlcN6P” value was 4.16e-05 ± 1.4e-05 s⁻¹. The “self-cleavage kobs at 160 uM GlcN6P” value with glucosamine-6-phosphate [6] is 0.000105 ± 2.3e-05 s⁻¹. Moreover, the “self-cleavage kobs at 640 uM GlcN6P” value in the series with glucosamine-6-phosphate [7] was determined as 0.000333 ± 4.9e-05 s⁻¹. The “self-cleavage kobs at 2500 uM GlcN6P” value with glucosamine-6-phosphate [4] is 0.00112 ± 0.00015 s⁻¹. Also, the “self-cleavage kobs at 10000 uM GlcN6P” value with glucosamine-6-phosphate [5] is 0.00181 ± 0.00038 s⁻¹.
As to AUAAAAGCGCCAGAACUACAGAAAUGUAGGUGACGAGGAGGAGGUUUAUCGAAUUUUCGGCGGCUGCCUCCAAA, in the series with glucosamine-6-phosphate [1], the kcat stood at 5.41e-05 ± 5.3e-06 s⁻¹. The Michaelis constant (KM) with glucosamine-6-phosphate [2] was 4.95 ± 1.1 mM. For the same variant, the “self-cleavage kobs at 10000 uM GlcN6P” value with glucosamine-6-phosphate [5] stood at 3.61e-05 ± 1.5e-05 s⁻¹.
In the case of AUAAAAGCGCCAGAACUACAGAAAUGUAGUUGACGAGGAGGAGGUUUAUCGAAUGUUCGACGGAUGCCUCCAAA, in the series with glucosamine-6-phosphate [1], the kcat was 2.4e-05 ± 6.2e-07 s⁻¹. Besides, in the series with glucosamine-6-phosphate [2], the Michaelis-Menten constant (KM) is 1.81 ± 0.13 mM.
For the variant AUAAAAGCGACAGAACUACAGAAAUGUAGUUGACGAGGAGGAGGUUUAUCUAAUUUUCGGCGGAUGCCUCCAAA, the kcat in the series with glucosamine-6-phosphate [1] is under 1e-05 s⁻¹. For the same variant, the “self-cleavage kobs at 40 uM GlcN6P” value in the series with glucosamine-6-phosphate [3] was under 1e-05 s⁻¹. Also, the “self-cleavage kobs at 10000 uM GlcN6P” value in the series with glucosamine-6-phosphate [5] was under 1e-05 s⁻¹.
On to AUAAAAGCGCCAGAACUACAGAAAUGUAGUUGACGAGGAAGAGGUUUAUCGAAUUUUCGGCGGAUGCCUCUAAA, for which the kcat with glucosamine-6-phosphate [1] was 0.0789 ± 0.028 s⁻¹. The KM with glucosamine-6-phosphate [2] was 3.66 ± 1.5 mM. The “self-cleavage kobs at 40 uM GlcN6P” value with glucosamine-6-phosphate [3] was 0.000981 ± 7.3e-05 s⁻¹. The “self-cleavage kobs at 160 uM GlcN6P” value in the series with glucosamine-6-phosphate [6] was 0.00194 ± 0.00048 s⁻¹. Moreover, the “self-cleavage kobs at 640 uM GlcN6P” value with glucosamine-6-phosphate [7] was determined as 0.0113 ± 0.0013 s⁻¹. Besides, the “self-cleavage kobs at 2500 uM GlcN6P” value with glucosamine-6-phosphate [4] was 0.0322 ± 0.009 s⁻¹. Further, the “self-cleavage kobs at 10000 uM GlcN6P” value in the series with glucosamine-6-phosphate [5] was 0.0591 ± 0.0079 s⁻¹.
As to AUAAAAGCGCCAGAACUACAGAAAUGUAGUUGACGAUGAGGAGGUUUAUCGAAUUUUCGGCGGAUGCUUCCAAA, the kcat with glucosamine-6-phosphate [1] was under 1e-05 s⁻¹.
For AUAAAAGCGCCAGAACUACAGAAAUGUAGUUGACGAGGAGGAGGUGUAUCGAAUUUUAGGCGGAUGCCUCCAAA, the kcat with glucosamine-6-phosphate [1] was found to be 0.000164 ± 4e-05 s⁻¹. In addition, the “self-cleavage kobs at 40 uM GlcN6P” value in the series with glucosamine-6-phosphate [3] is under 1e-05 s⁻¹. In the series with glucosamine-6-phosphate [4], the “self-cleavage kobs at 2500 uM GlcN6P” value is 3.08e-05 ± 1.2e-05 s⁻¹. Moreover, in the series with glucosamine-6-phosphate [5], the “self-cleavage kobs at 10000 uM GlcN6P” value was 8.21e-05 ± 1.1e-05 s⁻¹.
AUAAAAGCGCCAGAACUACAGAAAUGUAGUUGACGAGGAGGAGGUUUAUCUAAUUUUCGGGGGAUGCCUCCAAA: in the series with glucosamine-6-phosphate [1], the kcat is under 1e-05 s⁻¹.
Consider AUAAAAGCGCCAGGACUACAGAAAUGUAGUUGGCGAGGAGGAGGUUUAUCGAAUUUUCGGCGGAUGCCUCCAAA, for which the kcat with glucosamine-6-phosphate [1] is under 1e-05 s⁻¹. Moreover, the “self-cleavage kobs at 40 uM GlcN6P” value in the series with glucosamine-6-phosphate [3] was under 1e-05 s⁻¹. Moreover, the “self-cleavage kobs at 160 uM GlcN6P” value with glucosamine-6-phosphate [6] was under 1e-05 s⁻¹. Besides, the “self-cleavage kobs at 2500 uM GlcN6P” value in the series with glucosamine-6-phosphate [4] was under 1e-05 s⁻¹. The “self-cleavage kobs at 10000 uM GlcN6P” value in the series with glucosamine-6-phosphate [5] was under 1e-05 s⁻¹.
